Assays:
Assay in all cases: holdup assay
Parameters in all cases: key: below the threshold = too weak to quantify, mostly under pKd 3.1 to 4
PDLIM1, O00151 = target: PDLIM1, O00151
Inadl_8, Q8NI35 = target: Inadl_8, Q8NI35
LIN7A, O14910 = target: T1, LIN7A, O14910
T1 sequence (O14910 103-200, limits assumed, looked up): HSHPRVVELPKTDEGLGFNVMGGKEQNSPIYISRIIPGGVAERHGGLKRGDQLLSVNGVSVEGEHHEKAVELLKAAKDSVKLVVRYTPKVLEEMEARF

APBA2_1, Q99767 = target: T2, APBA2_1, Q99767
T2 sequence (Q99767 563-664, limits assumed, looked up): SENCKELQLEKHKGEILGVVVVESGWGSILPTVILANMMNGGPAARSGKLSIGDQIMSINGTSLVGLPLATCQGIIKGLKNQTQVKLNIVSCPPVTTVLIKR

SNTG1, Q9NSN8 = target: T3, SNTG1, Q9NSN8
T3 sequence (Q9NSN8 52-150, limits assumed, looked up): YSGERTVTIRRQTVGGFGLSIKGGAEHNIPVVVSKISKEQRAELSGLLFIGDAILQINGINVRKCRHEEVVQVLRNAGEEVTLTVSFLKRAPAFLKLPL

IL16_4, Q14005 = target: IL16_4, Q14005
HTRA1, Q92743 = target: HTRA1, Q92743
FRMPD1, Q5SYB0 = target: T4, FRMPD1, Q5SYB0
T4 sequence (Q5SYB0 52-145, limits assumed, looked up): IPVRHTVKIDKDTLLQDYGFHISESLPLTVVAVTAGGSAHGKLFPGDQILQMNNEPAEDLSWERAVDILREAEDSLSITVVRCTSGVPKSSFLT

TJP1_3, Q07157 = target: TJP1_3, Q07157
GRIP1_2, Q9Y3R0 = target: T5, GRIP1_2, Q9Y3R0
T5 sequence (Q9Y3R0 145-248, limits assumed, looked up): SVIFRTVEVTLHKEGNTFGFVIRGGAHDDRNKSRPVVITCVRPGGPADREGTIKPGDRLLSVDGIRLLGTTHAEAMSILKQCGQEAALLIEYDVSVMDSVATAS

LIN7B, Q9HAP6 = target: T6, LIN7B, Q9HAP6
T6 sequence (Q9HAP6 88-185, limits assumed, looked up): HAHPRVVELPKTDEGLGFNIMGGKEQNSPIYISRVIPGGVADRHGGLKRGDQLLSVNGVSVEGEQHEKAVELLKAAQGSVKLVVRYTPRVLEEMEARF

DVL3, Q92997 = target: T7, DVL3, Q92997
T7 sequence (Q92997 244-331, limits assumed, looked up): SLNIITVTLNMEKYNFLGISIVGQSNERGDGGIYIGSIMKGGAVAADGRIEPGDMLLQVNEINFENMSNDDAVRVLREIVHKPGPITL

DLG3_1, Q92796 = target: T8, DLG3_1, Q92796
T8 sequence (Q92796 125-227, limits assumed, looked up): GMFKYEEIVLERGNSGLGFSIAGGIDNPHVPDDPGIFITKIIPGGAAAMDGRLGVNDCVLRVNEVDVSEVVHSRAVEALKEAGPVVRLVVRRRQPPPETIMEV

FRMPD2_2, Q68DX3 = target: FRMPD2_2, Q68DX3
GORASP2, Q9H8Y8 = target: GORASP2, Q9H8Y8
SCRIB_3, Q14160 = target: SCRIB_3, Q14160
LAP2, Q96RT1 = target: LAP2, Q96RT1
LNX1_3, Q8TBB1 = target: LNX1_3, Q8TBB1
PDZRN3_1, Q9UPQ7 = target: T9, PDZRN3_1, Q9UPQ7
T9 sequence (Q9UPQ7 244-349, limits assumed, looked up): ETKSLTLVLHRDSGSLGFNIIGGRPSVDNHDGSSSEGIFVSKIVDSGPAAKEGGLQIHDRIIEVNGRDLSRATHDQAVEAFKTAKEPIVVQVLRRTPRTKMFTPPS

NHERF4_1, Q86UT5-2 = target: NHERF4_1, Q86UT5-2
DLG3_2, Q92796 = target: T10, DLG3_2, Q92796
T10 sequence (Q92796 221-321, limits assumed, looked up): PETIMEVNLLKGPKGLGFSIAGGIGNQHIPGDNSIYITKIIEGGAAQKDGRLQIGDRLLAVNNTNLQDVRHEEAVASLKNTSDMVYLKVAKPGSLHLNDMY

MPP6, Q9NZW5 = target: T11, MPP6, Q9NZW5
T11 sequence (Q9NZW5 125-219, limits assumed, looked up): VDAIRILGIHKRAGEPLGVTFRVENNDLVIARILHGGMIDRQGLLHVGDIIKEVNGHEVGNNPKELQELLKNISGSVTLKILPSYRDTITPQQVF

PCLO, Q9Y6V0 = target: T12, PCLO, Q9Y6V0
T12 sequence (Q9Y6V0 4491-4600, limits assumed, looked up): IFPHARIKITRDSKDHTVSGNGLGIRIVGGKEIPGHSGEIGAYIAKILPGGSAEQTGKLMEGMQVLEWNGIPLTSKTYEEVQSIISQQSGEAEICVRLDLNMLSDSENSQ

HTRA2, O43464 = target: HTRA2, O43464
GRID2IP_1, A4D2P6 = target: GRID2IP_1, A4D2P6
ARHGEF12, Q9NZN5-2 = target: ARHGEF12, Q9NZN5-2
[1] = plain residues with an end cap or a label only (N-terminal biotin on a linker: (peg)3)
[2] = plain residues with an end cap or a label only (N-terminal biotin on a linker: ahx)

Measured: pKd

LNX1_3, Q8TBB1, sequence (Q8TBB1 500-596): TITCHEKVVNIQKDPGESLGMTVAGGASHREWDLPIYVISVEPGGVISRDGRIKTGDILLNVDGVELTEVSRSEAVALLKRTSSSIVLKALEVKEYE
LAP2, Q96RT1, sequence (Q96RT1 other isoform, or with tags, fused parts or gaps): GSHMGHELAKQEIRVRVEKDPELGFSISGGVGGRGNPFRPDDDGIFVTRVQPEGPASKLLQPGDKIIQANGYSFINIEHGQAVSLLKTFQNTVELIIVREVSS
IL16_4, Q14005, sequence (Q14005 1229-1329): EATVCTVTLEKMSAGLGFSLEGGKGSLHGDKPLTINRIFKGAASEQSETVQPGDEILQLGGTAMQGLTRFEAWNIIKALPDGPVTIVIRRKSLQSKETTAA
TJP1_3, Q07157, sequence (Q07157 416-512): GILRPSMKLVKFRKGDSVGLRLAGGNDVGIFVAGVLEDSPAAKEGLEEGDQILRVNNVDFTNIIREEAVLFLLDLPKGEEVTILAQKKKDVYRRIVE
PDLIM1, O00151, sequence (O00151 1-87): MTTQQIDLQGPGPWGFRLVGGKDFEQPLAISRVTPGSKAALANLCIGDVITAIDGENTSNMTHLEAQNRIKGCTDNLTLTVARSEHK
NHERF4_1, Q86UT5-2, sequence (Q86UT5 other isoform, or with tags, fused parts or gaps): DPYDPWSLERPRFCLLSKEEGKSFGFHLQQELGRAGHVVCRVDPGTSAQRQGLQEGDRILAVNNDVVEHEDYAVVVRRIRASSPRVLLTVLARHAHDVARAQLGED
SCRIB_3, Q14160, sequence (Q14160 999-1103): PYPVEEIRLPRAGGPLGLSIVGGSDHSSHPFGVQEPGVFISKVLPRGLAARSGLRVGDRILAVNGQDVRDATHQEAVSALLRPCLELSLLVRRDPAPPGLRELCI
HTRA1, Q92743, sequence (Q92743 360-477): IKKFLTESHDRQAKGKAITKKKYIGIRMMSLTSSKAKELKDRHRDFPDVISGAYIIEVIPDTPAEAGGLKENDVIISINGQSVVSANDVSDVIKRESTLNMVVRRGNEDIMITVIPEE
HTRA2, O43464, sequence (O43464 355-458): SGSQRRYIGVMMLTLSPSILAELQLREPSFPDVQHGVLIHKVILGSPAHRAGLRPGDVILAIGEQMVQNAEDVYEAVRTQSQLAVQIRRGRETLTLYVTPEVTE
FRMPD2_2, Q68DX3, sequence (Q68DX3 944-1038): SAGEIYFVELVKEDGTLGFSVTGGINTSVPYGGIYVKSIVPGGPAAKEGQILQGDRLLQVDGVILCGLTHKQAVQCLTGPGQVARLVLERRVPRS
GRID2IP_1, A4D2P6, sequence (A4D2P6 1-87): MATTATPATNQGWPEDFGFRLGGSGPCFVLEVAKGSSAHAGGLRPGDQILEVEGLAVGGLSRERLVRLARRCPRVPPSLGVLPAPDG
ARHGEF12, Q9NZN5-2, sequence (Q9NZN5 other isoform, or with tags, fused parts or gaps): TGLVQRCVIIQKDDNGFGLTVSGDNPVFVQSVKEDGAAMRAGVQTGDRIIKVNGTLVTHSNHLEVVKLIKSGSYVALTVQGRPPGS
Inadl_8, Q8NI35, sequence (Q8NI35 1425-1530): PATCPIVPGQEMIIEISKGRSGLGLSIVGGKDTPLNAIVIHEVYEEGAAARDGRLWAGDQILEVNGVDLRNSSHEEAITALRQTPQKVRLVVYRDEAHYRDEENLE

RRRRSQSRESQC [HBV-HBc, P03193]
3.58: Inadl_8, Q8NI35; [1]
3.59: DLG3_1, Q92796; [1]
4.56: DLG3_2, Q92796; [1]
3.7: LIN7B, Q9HAP6; [1]
3.89: PDZRN3_1, Q9UPQ7; [1]
4.03: SCRIB_3, Q14160; [1]
3.68: IL16_4, Q14005; [1]
3.86: NHERF4_1, Q86UT5-2; [1]
below the threshold: PDLIM1, O00151; [1] | LIN7A, O14910; [1] | APBA2_1, Q99767; [1] | SNTG1, Q9NSN8; [1] | HTRA1, Q92743; [1] | FRMPD1, Q5SYB0; [1] | TJP1_3, Q07157; [1] | GRIP1_2, Q9Y3R0; [1] | DVL3, Q92997; [1] | FRMPD2_2, Q68DX3; [1] | GORASP2, Q9H8Y8; [1] | LAP2, Q96RT1; [1] | LNX1_3, Q8TBB1; [1] | MPP6, Q9NZW5; [1] | PCLO, Q9Y6V0; [1] | HTRA2, O43464; [1] | GRID2IP_1, A4D2P6; [1] | ARHGEF12, Q9NZN5-2; [1]

TQKFRASTAL [FRMPD1, Q5SYB0]
below the threshold: PDLIM1, O00151; [2] | Inadl_8, Q8NI35; [2] | LIN7A, O14910; [2] | APBA2_1, Q99767; [2] | SNTG1, Q9NSN8; [2] | IL16_4, Q14005; [2] | HTRA1, Q92743; [2] | FRMPD1, Q5SYB0; [2] | TJP1_3, Q07157; [2] | GRIP1_2, Q9Y3R0; [2] | LIN7B, Q9HAP6; [2] | DVL3, Q92997; [2] | DLG3_1, Q92796; [2] | FRMPD2_2, Q68DX3; [2] | GORASP2, Q9H8Y8; [2] | LAP2, Q96RT1; [2] | LNX1_3, Q8TBB1; [2] | DLG3_2, Q92796; [2] | MPP6, Q9NZW5; [2] | PCLO, Q9Y6V0; [2] | HTRA2, O43464; [2] | GRID2IP_1, A4D2P6; [2]
4.16: PDZRN3_1, Q9UPQ7; [2]
4.59: SCRIB_3, Q14160; [2]
4.47: NHERF4_1, Q86UT5-2; [2]
4.79: ARHGEF12, Q9NZN5-2; [2]

Reference: PMC9482650, “Quantitative fragmentomics allow affinity mapping of interactomes” (Nature Communications, 2022)
